The chains are these.
B1: WW1 FNBP4 (amino acids 214–430) (domain or fragment, UniProt Q8N3X1 214-430, looked up)
chain: GIEMGDWQEVWDENTGCYYYWNTQTNEVTWELPQYLATQVQGLQHYQPSSVPGAETSFVVNTDIYSKEKTISVSSSKSGPVIAKREVKKEVNEGIQALSNSEEEKKGVAASLLAPLLPEGIKEEEERWRRKVICKEEPVSEVKETSTTVEEATTIVKPQEIMLDNIEDPSQEDLCSVVQSGESEEEEEQDTLELELVLERKKAELRALEEGDGSVSG
B2: FH1 FMN1 (amino acids 870–970) (domain or fragment, mouse, UniProt Q05860 870-970, looked up)
chain: PPAPPTPPPLPPPLIPPPPPLPPGLGPLPPAPPIPPVCPVSPPPPPPPPPPTPVPPSDGPPPPPPPPPPLPNVLALPNSGGPPPPPPPPPPGLAPPPPPGL
B3: N-terminal WW1-WW2 FNBP4 (amino acids 214–629) (domain or fragment, UniProt Q8N3X1 214-629, looked up)
chain: GIEMGDWQEVWDENTGCYYYWNTQTNEVTWELPQYLATQVQGLQHYQPSSVPGAETSFVVNTDIYSKEKTISVSSSKSGPVIAKREVKKEVNEGIQALSNSEEEKKGVAASLLAPLLPEGIKEEEERWRRKVICKEEPVSEVKETSTTVEEATTIVKPQEIMLDNIEDPSQEDLCSVVQSGESEEEEEQDTLELELVLERKKAELRALEEGDGSVSGSSPRSDISQPASQDGMRRLMSKRGKWKMFVRATSPESTSRSSSKTGRDTPENGETAIGAENSEKIDENSDKEMEVEESPEKIKVQTTPKVEEEQDLKFQIGELANTLTSKFEFLGINRQSISNFHVLLLQTETRIADWREGALNGNYLKRKLQDAAEQLKQYEINATPKGWSCHWDRDHRRYFYVNEQSGESQWEFPDG

Test [1] concerns the target T1, C-terminal FH1-FH2 FMN1 (amino acids 870–1466) (mouse, UniProt Q05860 870-1466).
T1 sequence (looked up): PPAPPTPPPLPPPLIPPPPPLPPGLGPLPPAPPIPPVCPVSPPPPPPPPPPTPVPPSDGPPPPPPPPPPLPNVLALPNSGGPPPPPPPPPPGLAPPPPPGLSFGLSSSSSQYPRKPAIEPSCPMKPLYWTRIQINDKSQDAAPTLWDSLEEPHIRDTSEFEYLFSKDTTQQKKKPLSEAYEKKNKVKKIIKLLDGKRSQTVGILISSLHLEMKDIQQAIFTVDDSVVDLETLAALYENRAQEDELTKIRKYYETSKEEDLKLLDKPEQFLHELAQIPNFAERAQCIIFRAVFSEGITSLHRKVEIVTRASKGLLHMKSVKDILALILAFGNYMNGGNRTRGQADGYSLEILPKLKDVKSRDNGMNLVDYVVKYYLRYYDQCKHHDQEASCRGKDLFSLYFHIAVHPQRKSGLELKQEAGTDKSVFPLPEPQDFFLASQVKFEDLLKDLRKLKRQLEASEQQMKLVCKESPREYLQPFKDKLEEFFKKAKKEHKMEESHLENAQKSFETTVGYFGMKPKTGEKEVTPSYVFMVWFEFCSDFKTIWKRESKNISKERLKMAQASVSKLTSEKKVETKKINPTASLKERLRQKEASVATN
As to the kind of experiment: SPR.

Test [2] has as its target B3. As to the kind of experiment: SPR.

On to B1, for which, in test [1], the dissociation constant Kd is 2 nM, the koff was determined as 0.00127 s⁻¹ and the kon turned out to be 637000 M⁻¹ s⁻¹.
For the molecule B2, in test [2], binding was characterised by a dissociation constant (Kd) of 0.56 nM, the koff amounted to 0.0107 s⁻¹ and the kon is 1.94e+07 M⁻¹ s⁻¹.
B3: in test [1], the Kd was 1.84 nM, the koff came out at 0.000571 s⁻¹ and the association rate constant (kon) was 310000 M⁻¹ s⁻¹.

(Values after paper PMC10770428 (Current Research in Structural Biology, 2023).)
